# From the supplement of paper PMC9170038
# Tested on: MS2 coat protein
# Experiment: apparent KD of MS2 coat protein, switch OFF state (with FMN for OFF switches, without FMN for ON switches); designed switch direction (-1 OFF switch, 1 ON switch): 1; higher = weaker reporter binding
# Settings: FMN input: 0 or 200 uM; Eterna round: R93 (includes R88 designs)
# Outline: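 The designed RNA switches were transcribed on-chip from Illumina sequencing clusters. In 100 mM Tris-HCl pH 7.5, 80 mM KCl and 4 mM MgCl2, without or with constant ligand, they were titrated with SNAP-549-labelled MS2 coat protein from 0.7 or 1.5 nM to 3 µM in twofold steps. Apparent KD is the per-design median of normalised cluster binding-curve fits.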
row,Sequence,apparent KD of MS2 coat protein
1,GAAAAACAUGAGGAUCACCCAUGUGAUAACAUGGGAGGAUAUACGAGGACGAUAGUCAAGGUAGAAGGCCUAAAAG [Garnet 60],24.6 nM
2,AAAAAACAUGAGGAUCACCCAUGUAAAAAAAACACAGGAUAUCCCUUUUUUAAAUGGGAAGGAGAAGGGUGAAAAA [Nob's Hobby 11 - Jieux - Same State 1],36.2 nM
3,AAAACACAUGAGGAUCACCCAUGUAGAAAUACUGGAGGAUAUGCUAAAACGAAAGACAAUGUAGAAGGCCGAAAAG [saturn 11],208 nM
4,AAAUAACAUGAGGAUCACCCAUGUUACGACUUUACAGGAUAUGUGGGUGAAAAUAGCAUGACAGAAGGGUACAGUA [SameState1 Malc#36],112 nM
5,GGAAAUAAAAGAGAGGAUAUCCAAAGGAAAACAUGAGGAUCACCCAUGUAAAAGGAAGGAAAGUGGGAGAAGGCUCAAAAUAAGG [salish99-ss2-008],49.9 nM
6,CAUCAUGCGCCUAAGGAUAUGUCCCACAAGACAUGAGGAUCACCCAUGUAGCCAAUUAAUACGGUGCAGAAGGUGGAGCGCAUGC [Qusotior],1080 nM
7,AGGAAACAUGAGGAUCACCCAUGUAAAAAUAUGGGAGGAUAUACGAAGACGAAAGUAAGAGUAGAAGGCCUAAAAG [Garnet 9],90.6 nM
8,CGAAAGGAGAGAGAGGAUAUCCAAAGGAAAACAUGAGGAUCACCCAUGUAGAAGGUAGGAGAUUGGGAGAAGGCUCAAGCAAAAG [salish99-ss2-155],26.4 nM
9,UAAAAACAUGAGGAUCACCCAUGUAGAAAUAUGGGAGGAUAUACAAAGACGAAAGUCAAAGUAGAAGGCCUGAAAU [Mat - Same State 1 - Eli mod - 85],88.7 nM
10,GAAAAACAUGAGGAUCACCCAUGUGUAAAUAUGGGAGGAUAUACGAAGACGUAAGUCAAAGUAGAAGGCCUAAAAG [Garnet 92],119 nM
11,UUUAAUUAUACGAAGGAUAUCGGUAAUUAGACAUGAGGAUCACCCAUGUUAUAUGGUUAAAUAUUCGAGAAGGUCGAGGGUGAAA [JR_SS002_Sub506],32.1 nM
12,AUAAAACAUGAGGAUCACCCAUGUAAAAAUAUGGGAGGAUAUGCGAAAUAAAAUAAAUAAGCAGAAGGCCUAAAAA [SS! MT 19],174 nM
13,AAUAAUUAUACGAAGGAUAUCGGUAAUUAGACAUGAGGAUCACCCAUGUAAUAUGGUUAAAUAAUCGAGAAGGUCGAGGGUGAAA [JR_SS002_Sub503],42.2 nM
14,CAUCAUGCGUCUAAGGAUAUGUCUCACAAGACAUGAGGAUCACCCAUGUAGAAUAAAUAAAUGAUGCAGAAGGUGGAGCGCAUGC [Erzausis],283 nM
15,UGAAGACAUGAGGAUCACCCAUGUGGGAUUAUGGGAGGAUAUACAAAGACGAGAGUCAGAGUAGAAGGCCUAGGAA [salish99-ss1-116(!)],68 nM
16,AUAUGAGCUAUUGAGGAUAUCCAUAACAAGACAUGAGGAUCACCCAUGUAAUCAAAACAAUAAUGGGAGAAGGCAAUAGCUCAAU [SS 2 M48],44.1 nM
17,CAUAGACAUGAGGAUCACCCAUGUAGAAUUAUGGGAGGAUAUACAAAGACGAGAGUCAGAGUAGAAGGCCUAGGAU [salish99-ss1-162],35.6 nM
18,AAGACACAUGAGGAUCACCCAUGUCAAGAGAGACGAGGAUAUCUGAAAAAAAAAAAAAAAGGAGAAGGCGUGAAAA [Same State of Confusion],69.3 nM
19,AAAAAAAAAACAUAGGAUAUCCGGGCCGGGACAUGAGGAUCACCCAUGUCAAAAAAAAUUGGCCCGGAGAAGGAUGAAAAAAAAAA [SAmeState2-II],14 nM
20,GCAAAACAUGAGGAUCACCCAUGUCAACAAAAUCAAGGAUAUGAGCCGGCAUUGCCGGCAUCAGAAGGUGAACCUU [Gemaisinve],129 nM
21,AAAAACAUGGUGCAGGAUAUAUUAAUAGUCACAUGAGGAUCACCCAUGUUCAUAUAUAUGAACGAGUAGAAGGGCGAUGAAAAAA [Mat - Same state - Malcolm Mod - D110],541 nM
22,AACAAUCUAUCUGAGGAUAUCAUAAAAAAAACAUGAGGAUCACCCAUGUGCAGGAAAACUGCAUAUGAGAAGGCAGAUAGAUUGA [SS2: 1102],10.6 nM

row,Sequence,apparent KD of MS2 coat protein
1,AAUAUACAUGAGGAUCACCCAUGUUUUAAUAGCUGAGGAUAUACGGGUGAAAAUAGCAUAGUAGAAGGCGGGUGUA [SameState1 Malc#9],80 nM
2,GGGAGACAUGAGGAUCACCCAUGUGAGAAGAGGCGAGGAUAUCGAAAGAAAGAAGAGAAACGAGAAGGCGCGAGGU [salish99-SS1-055],72.3 nM
3,AAUAUAUUAAGUGAGGAUAUCAUAGAAAAAACAUGAGGAUCACCCAUGUGGGAAACCUGGUCGGGUGAGAAGGCACUUAAUAUAU [Samwise Clockwise 29 - Jieux - Same State 2],704 nM
4,AAUAACAAAAGAAAGGAUAUGCGCACAGGAACAUGAGGAUCACCCAUGUGCCGCCAAGGCGGAUAGCAGAAGGUUCACACGCAUA [Default title],20.1 nM
5,AACAAUCUAUCUGAGGAUAUCAUGAAAAAGACAUGAGGAUCACCCAUGUACCAGGAAACUGGUUAUGAGAAGGCAGAUAGAUUGA [SS2: 1116],14.4 nM
6,CAUCAUGCGCCUAAGGAUAUGUCUCACAAGACAUGAGGAUCACCCAUGUAGAAUAAAUAAAUGAUGCAGAAGGUGGAGUGCAUGA [Inares],785 nM
7,AAUAAUUAUAACGAGGAUAUCCGUAAUAAGACAUGAGGAUCACCCAUGUAAUAAGGGUAAAUAAAGGAGAAGGCGUAGGGUGAAA [JR_SS002_Sub002],61.1 nM
8,GGAAAGGAGAGAGAGGAUAUCCAAAGGAAAACAUGAGGAUCACCCAUGUAGAAGGUAGGAAAUUGGGAGAAGGCUCAAGAAAGAG [salish99-ss2-138],57.2 nM
9,GAAAAACAUGAGGAUCACCCAUGUAGAAAUAUGGGAGGAUAUACAAAGACGAAAGUCAAAGUAGAAGGCCUCAAAG [JL S1 M-MoE mod 2 In the Red],78.2 nM
10,UAUCAUUACACGAAGGAUAUCGAUAAUAGAACAUGAGGAUCACCCAUGUGAAAUAAAAUACAGAACGAGAAGGUCGAGGGUGAAG [JR_SS002_Sub703],16.8 nM
11,AAAUAAAGGACUGAGGAUAUACCACAUGAAACAUGAGGAUCACCCAUGUUAAAAAACAAAGGGUGGUAGAAGGCAGUCCACAAAC [Same State 2.5f ( so lets mod hyphema)],12.1 nM
12,AGAAAAAAAACGCAGGAUAUCCAAAAGAAAACAUGAGGAUCACCCAUGUAAAAGAAAAUAAAAUGGGAGAAGGGCGAAAAAAAGA [Mat - Same State 2 - Eli mod - D93],18.5 nM
13,AAGAGACAUGAGGAUCACCCAUGUAGGAUUAUGGGAGGAUAUACAAAGACGAGAGUCAGAGUAGAAGGCCUAGGAG [salish99-ss1-131(!)],57.4 nM
14,GGCUGCAAUUAUGAGGAUAUGUUUGGAUGAACAUGAGGAUCACCCAUGUGGCGAUAGCCGUCUAUGCAGAAGGUGUAGUGGCGGC [Ertion],59.1 nM
15,AAAGAAAAACUAGAGGAUAUCUAGAUGAUAACAUGAGGAUCACCCAUGUGAAGAAAGGAAUAUAGGGAGAAGGCUAGAAGAAAAA [JL Nando mod 20],28.6 nM
16,GAAAAACAUGAGGAUCACCCAUGUAAAAAUAUGGGAGGAUAUUCAAACACGAAAGUCAAAGAAGAAGGCCUAAAAG [Garnet 2],207 nM
17,AAUGAACAUGAGGAUCACCCAUGUUUUAAUAGUUGAGGAUAUAAGGGUGAAAAUAGCACAUUAGAAGGCGAGUGUA [SameState1 Malc#15],38 nM
18,UAUCAUUACACGAAGGAUAUCGAUAAUUGAACAUGAGGAUCACCCAUGUGCCAUUCUUUACAGUUCGAGAAGGUCGAGGGUGAAG [JR_SS002_Sub708],83.5 nM
19,GAAAAACAUGAGGAUCACCCAUGUAGAAAUAUGGGAGGAUAUACGAAGACGAAAGUCGAGGUAGAAGGCCUAAAAG [Garnet 54],98 nM
20,UAAAAACAUGAGGAUCACCCAUGUAAGAUAAACACAGGAUAUGCGAAAAGAAACAAAGAAGCAGAAGGGUGAAAAU [Mat - Same State 1 - Tesla mod - 44],64.8 nM
21,AGGAGACAUGAGGAUCACCCAUGUGAGAAGAGGCGAGGAUAUCGAAAGAAAGAAGAGAAACGAGAAGGCGCGAGUA [salish99-SS1-018],40.8 nM
